According to patent US20250075002A1 (BEIGENE SWITZERLAND, published 2025):

How the values were obtained:
[1] = target: T1, Human MUC1 (full length), on cells (human, UniProt P15941 24-1255); assay: cell-based or functional assay
[2] = target: T1, Human MUC1 (full length), on cells; assay: flow cytometry on live ZR-75 cells (native MUC1)

T1 sequence (P15941 24-1255 limits assumed): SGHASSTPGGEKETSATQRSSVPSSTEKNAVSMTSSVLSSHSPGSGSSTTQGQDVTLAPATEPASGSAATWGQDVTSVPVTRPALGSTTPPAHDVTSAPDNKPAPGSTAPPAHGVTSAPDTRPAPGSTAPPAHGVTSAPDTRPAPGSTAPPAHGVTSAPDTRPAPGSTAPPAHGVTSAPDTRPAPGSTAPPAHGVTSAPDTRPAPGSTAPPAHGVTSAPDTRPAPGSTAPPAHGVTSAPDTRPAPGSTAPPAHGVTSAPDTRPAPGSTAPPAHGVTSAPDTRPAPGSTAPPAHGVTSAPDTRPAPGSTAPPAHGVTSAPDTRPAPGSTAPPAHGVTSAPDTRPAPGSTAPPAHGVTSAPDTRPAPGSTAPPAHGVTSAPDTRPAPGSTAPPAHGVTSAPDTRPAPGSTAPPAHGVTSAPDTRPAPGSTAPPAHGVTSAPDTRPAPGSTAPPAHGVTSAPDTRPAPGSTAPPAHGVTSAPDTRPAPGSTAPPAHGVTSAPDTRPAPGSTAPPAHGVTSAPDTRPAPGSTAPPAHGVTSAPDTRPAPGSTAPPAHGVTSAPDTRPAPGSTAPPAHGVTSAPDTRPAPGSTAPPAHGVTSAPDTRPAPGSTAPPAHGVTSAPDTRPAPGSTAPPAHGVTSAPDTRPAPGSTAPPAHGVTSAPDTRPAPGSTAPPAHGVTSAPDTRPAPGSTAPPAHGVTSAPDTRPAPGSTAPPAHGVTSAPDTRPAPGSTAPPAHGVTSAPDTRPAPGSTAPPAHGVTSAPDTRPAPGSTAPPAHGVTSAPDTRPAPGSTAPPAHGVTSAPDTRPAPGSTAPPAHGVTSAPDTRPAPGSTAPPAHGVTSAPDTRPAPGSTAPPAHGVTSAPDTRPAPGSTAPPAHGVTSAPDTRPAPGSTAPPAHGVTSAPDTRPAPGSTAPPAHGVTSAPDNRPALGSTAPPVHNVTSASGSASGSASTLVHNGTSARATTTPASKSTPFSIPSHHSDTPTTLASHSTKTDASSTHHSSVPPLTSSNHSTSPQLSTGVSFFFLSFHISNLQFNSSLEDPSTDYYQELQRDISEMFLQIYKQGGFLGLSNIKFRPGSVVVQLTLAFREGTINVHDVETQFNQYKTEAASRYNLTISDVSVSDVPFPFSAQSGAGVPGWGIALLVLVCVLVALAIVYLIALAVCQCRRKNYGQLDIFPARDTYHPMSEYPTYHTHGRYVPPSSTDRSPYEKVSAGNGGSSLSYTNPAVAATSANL

Binder | Cell lysis activity EC50, T-47D/nanoluc in human whole blood [1] | Cell lysis activity Emax, T-47D/nanoluc in human whole blood [1] | EC50 [2]
MUC1 3D1-hFc-AF (antibody, IgG1, V domains shown, afucosylated Fc glycan (-AF)) VH: EVQLVQSGAEVKKPGESLKISCKGSGYAFSNFWMNWVRQMPGKGLEWMGQIYPGDGDTNYNGKFKGQVTISADKSISTAYLQWSSLKASDTAMYYCARSYYRSAWFAYWGQGTLVTVSL VL: EIVLTQSPDFQSVTPKEKVTITCRASQSIGTSIHWYQQKPDQSPKLLIKYASESISGVPSRFSGSGSGTDFTLTINSLEAEDAATYYCQQSNNWPLTFGQGTKVEIK | 8.85 nM | 10.6% | 
Gatipotuzumab-AF (antibody, IgG1, V domains shown, afucosylated Fc glycan (-AF)) VH: EVQLVESGGGLVQPGGSMRLSCVASGFPFSNYWMNWVRQAPGKGLEWVGEIRLKSNNYTTHYAESVKGRFTISRDDSKNSLYLQMNSLKTEDTAVYYCTRHYYFDYWGQGTLVTVSS VL: DIVMTQSPLSNPVTPGEPASISCRSSKSLLHSNGITYFFWYLQKPGQSPQLLIYQMSNLASGVPDRFSGSGSGTDFTLRISRVEAEDVGVYYCAQNLELPPTFGQGTKVEIK | 2.46 nM | 10.2% | 
HuVH-HMFG1-AF (antibody, IgG1, V domains shown, afucosylated Fc glycan (-AF)) VH: QVQLVQSGAEVKKPGASVKVSCKASGYTFSAYWIEWVRQAPGKGLEWVGEILPGSNNSRYNEKFKGRVTVTRDTSTNTAYMELSSLRSEDTAVYYCARSYDFAWFAYWGQGTLVTVSS VL: DIQMTQSPSSLSASVGDRVTITCKSSQSLLYSSNQKIYLAWYQQKPGKAPKLLIYWASTRESGVPSRFSGSGSGTDFTFTISSLQPEDIATYYCQQYYRYPRTFGQGTKVEIK |  | 3.59% | 
Clivatuzumab-AF (antibody, IgG1, V domains shown, afucosylated Fc glycan (-AF)) VH: QVQLQQSGAEVKKPGASVKVSCEASGYTFPSYVLHWVKQAPGQGLEWIGYINPYNDGTQYNEKFKGKATLTRDTSINTAYMELSRLRSDDTAVYYCARGFGGSYGFAYWGQGTLVTVSS VL: DIQLTQSPSSLSASVGDRVTMTCSASSSVSSSYLYWYQQKPGKAPKLWIYSTSNLASGVPARFSGSGSGTDFTLTISSLQPEDSASYFCHQWNRYPYTFGGGTRLEIK |  | 2.31% | 
huBG219P-Bz0 (antibody, IgG1, V domains shown, Humanized) VH: EVQLLESGGGLVQPGGSLRLSCAASGFTFNDYIMSWVRQAPGKGLEWVATVSSGGDNTYYPDSVKGRFTISRDNSKNTLYLQMNSLRAEDTAVYYCTRYGGLGAMDYWGQGTLVTVSS VL: DIQMTQSPSSLSASVGERVTITCRASGNIHNYLTWYQQKPGKSPKLLVYNAKTLADGVPSRFSGSGSGPDYTLTISSLQPEDFATYYCQHFWSVPYTFGQGTKLEIK |  |  | 20.9 nM
